Our source for the binding result and Kd values is doi:10.1101/602623.

For orientation: Kd means the concentration at which binding is half-saturated. A low value points to a tighter complex.

Changes are numbered by the printed parent chain.

For series [1], the target named is T1, Cas1-2 integrase complex Wt (Escherichia coli (type I-E), UniProt Q46896;P45956 1-305;1-94).
T1 sequence 1: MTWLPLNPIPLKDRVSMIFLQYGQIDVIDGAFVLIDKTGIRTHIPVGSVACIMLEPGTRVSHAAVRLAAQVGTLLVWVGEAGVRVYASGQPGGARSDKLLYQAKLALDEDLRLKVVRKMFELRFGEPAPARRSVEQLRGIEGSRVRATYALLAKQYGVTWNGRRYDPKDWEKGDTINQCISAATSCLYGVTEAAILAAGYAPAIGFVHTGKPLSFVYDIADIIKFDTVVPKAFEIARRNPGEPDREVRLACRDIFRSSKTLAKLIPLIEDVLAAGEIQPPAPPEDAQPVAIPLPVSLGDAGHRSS
T1 sequence 2: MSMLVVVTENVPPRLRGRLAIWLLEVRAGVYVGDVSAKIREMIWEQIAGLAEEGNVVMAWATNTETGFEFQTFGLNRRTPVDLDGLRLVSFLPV
Kind of series: T5 exonuclease footprinting.

Series [2] has as its target T1, Cas1-2 integrase complex Wt. Kind of series: EMSA.
In a further series the target is T2, Cas1-2 Y22A (Escherichia coli (type I-E), UniProt Q46896;P45956 1-305;1-94, Y22A).
T2 sequence 1: T1 sequence 1 with Y22A
T2 sequence 2: T1 sequence 2
Kind of series: EMSA. A general note: A gel shift assay detects complexes by their altered migration in electrophoresis.

B1: P63mPAMT* (dsDNA)
DNA 1: CTCCGCGCTGTAGCCCTCACCACTGTTGTGCACGACGACACCAGTCCGTGGCGTTATCCAGCT
DNA 2: AGCTGGATAACGCCACGGACTGGTGTCGTCGTGCACAACAGTGGTGAGGGCTACAGCGCGGAG
As for B1, the binding result in series [1] is recorded as “binds”.

B2: P63 (dsDNA)
DNA 1: B1 DNA 1 with C14A, C15A, C16G, C23T, C41T, G44T
DNA 2: B1 DNA 2 with C20A, G23A, G41A, G48C, G49T, G50T
Regarding B2, the Kd turned out to be 831 nM in series [2] and 6220 nM in the series with Cas1-2 Y22A.

B3: P63mPAMB* (dsDNA)
DNA 1: B1 DNA 1
DNA 2: B1 DNA 2
In the case of B3, in series [1], the binding result was “binds”.

B4: P23[3'-5] (dsDNA)
DNA 1: ATTTACTACTCGTTCTGGTGTTTCTCGT
DNA 2: AAACACCAGAACGAGTAGTAAATTGGGC
As for B4, the Kd in series [2] was 254 nM.

B5: P33 (dsDNA)
DNA 1: GCCCAATTTACTACTCGTTCTGGTGTTTCTCGT
DNA 2: ACGAGAAACACCAGAACGAGTAGTAAATTGGGC
On to B5, for which the Kd in series [2] came to 2660 nM.

B6: P23[3'-10] (dsDNA)
DNA 1: ATTTACTACTCGTTCTGGTGTTTCTCGTCAGGG
DNA 2: AAACACCAGAACGAGTAGTAAATTGGGCTTGAG
On to B6, for which the Kd in series [2] came to 286 nM.
